According to paper PMC10397247:

Experiments:
Test in all cases: two-hybrid library CCNG1;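 also: natural log of median RNA to DNA barcode read ratio; higher means stronger binding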
4H3277-bH = target: T1, 4H3277-bH
T1 chain: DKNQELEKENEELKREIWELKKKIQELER

4H3628-bH = target: T2, 4H3628-bH
T2 chain: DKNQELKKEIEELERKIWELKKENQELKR

4H626-bH = target: T3, 4H626-bH
T3 chain: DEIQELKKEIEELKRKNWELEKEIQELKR

4H906-bH = target: T4, 4H906-bH
T4 chain: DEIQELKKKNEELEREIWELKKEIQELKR

4H3926-bH = target: T5, 4H3926-bH
T5 chain: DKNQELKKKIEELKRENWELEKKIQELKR

4H3298-bH = target: T6, 4H3298-bH
T6 chain: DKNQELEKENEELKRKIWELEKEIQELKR

4H3497-bH = target: T7, 4H3497-bH
T7 chain: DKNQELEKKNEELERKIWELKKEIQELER

4H3462-bH = target: T8, 4H3462-bH
T8 chain: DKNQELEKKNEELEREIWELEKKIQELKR

4H591-bH = target: T9, 4H591-bH
T9 chain: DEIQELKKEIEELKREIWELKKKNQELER

4H3613-bH = target: T10, 4H3613-bH
T10 chain: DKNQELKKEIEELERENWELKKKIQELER

4H918-bH = target: T11, 4H918-bH
T11 chain: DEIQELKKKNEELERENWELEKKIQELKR

4H3175-bH = target: T12, 4H3175-bH
T12 chain: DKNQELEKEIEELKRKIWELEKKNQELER

4H883-bA = target: T13, 4H883-bA
T13 chain: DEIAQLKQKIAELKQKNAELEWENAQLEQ

4H454-bA = target: T14, 4H454-bA
T14 chain: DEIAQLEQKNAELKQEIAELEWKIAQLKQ

4H2729-bA = target: T15, 4H2729-bA
T15 chain: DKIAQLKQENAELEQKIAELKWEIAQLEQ

4H568-bA = target: T16, 4H568-bA
T16 chain: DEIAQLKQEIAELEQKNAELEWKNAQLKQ

4H3855-bA = target: T17, 4H3855-bA
T17 chain: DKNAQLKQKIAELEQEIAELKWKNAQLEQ

4H3112-bA = target: T18, 4H3112-bA
T18 chain: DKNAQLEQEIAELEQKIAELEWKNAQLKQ

4H3354-bA = target: T19, 4H3354-bA
T19 chain: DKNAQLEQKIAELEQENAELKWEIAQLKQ

4H3782-bA = target: T20, 4H3782-bA
T20 chain: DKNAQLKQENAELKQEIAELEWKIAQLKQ

4H331-bA = target: T21, 4H331-bA
T21 chain: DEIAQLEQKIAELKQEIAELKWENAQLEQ

4H953-bA = target: T22, 4H953-bA
T22 chain: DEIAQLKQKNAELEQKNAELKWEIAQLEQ

4H967-bA = target: T23, 4H967-bA
T23 chain: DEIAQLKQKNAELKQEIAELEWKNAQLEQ

4H338-bA = target: T24, 4H338-bA
T24 chain: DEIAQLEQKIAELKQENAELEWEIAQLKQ

4H908-bA = target: T25, 4H908-bA; settings: mean of both orientations
T25 chain: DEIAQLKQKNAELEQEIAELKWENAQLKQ

4H717-bA = target: T26, 4H717-bA
T26 chain: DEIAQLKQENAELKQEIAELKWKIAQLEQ

4H4001-bA = target: T27, 4H4001-bA
T27 chain: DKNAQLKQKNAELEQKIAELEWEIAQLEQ

4H607-bA = target: T28, 4H607-bA
T28 chain: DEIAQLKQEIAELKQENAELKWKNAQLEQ

4H687-bA = target: T29, 4H687-bA
T29 chain: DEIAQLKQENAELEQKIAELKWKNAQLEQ

4H3185-bA = target: T30, 4H3185-bA
T30 chain: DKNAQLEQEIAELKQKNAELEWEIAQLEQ

4H3427-bA = target: T31, 4H3427-bA
T31 chain: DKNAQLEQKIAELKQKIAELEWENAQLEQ

4H754-bA = target: T32, 4H754-bA
T32 chain: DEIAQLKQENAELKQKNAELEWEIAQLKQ

4H797-bA = target: T33, 4H797-bA
T33 chain: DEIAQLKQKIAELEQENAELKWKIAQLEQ

4H918-bA = target: T34, 4H918-bA
T34 chain: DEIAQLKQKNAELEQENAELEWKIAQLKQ

4H72-bA = target: T35, 4H72-bA
T35 chain: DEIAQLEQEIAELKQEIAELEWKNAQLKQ

## DKNQELEKEIEELKRKIWELEKKNQELER [4H3175-bH]
4H3277-bH
  interaction score: -0.0103
4H3628-bH
  interaction score: -0.799
4H626-bH
  interaction score: -1.62
4H906-bH
  interaction score: 0.787
4H3926-bH
  interaction score: -0.189
4H3298-bH
  interaction score: -0.132
4H3497-bH
  interaction score: 0.402
4H3462-bH
  interaction score: 0.891
4H591-bH
  interaction score: -2.15
4H3613-bH
  interaction score: -0.475
4H918-bH
  interaction score: -1.69
4H3175-bH
  interaction score: 0.103

## DKIAQLKQENAELEQKIAELKWEIAQLEQ [4H2729-bA]
4H883-bA
  interaction score: -1.72
4H454-bA
  interaction score: 1.84
4H2729-bA
  interaction score: -0.254
4H568-bA
  interaction score: -1.78
4H3855-bA
  interaction score: -0.46
4H3112-bA
  interaction score: -0.141
4H3354-bA
  interaction score: -0.919
4H3782-bA
  interaction score: 0.712
4H331-bA
  interaction score: -1.18
4H953-bA
  interaction score: -1.01
4H967-bA
  interaction score: 0.0132
4H338-bA
  interaction score: -0.713
4H908-bA
  interaction score: -0.401
4H717-bA
  interaction score: -1.35
4H4001-bA
  interaction score: -0.575
4H607-bA
  interaction score: -1.29
4H687-bA
  interaction score: -1.51
4H3185-bA
  interaction score: -0.331
4H3427-bA
  interaction score: -0.88
4H754-bA
  interaction score: -0.709
4H797-bA
  interaction score: -1.21
4H918-bA
  interaction score: 1.73
4H72-bA
  interaction score: -0.336
